For 35 variants, abundance fitness results are on record in the Human Domainome abundance scans (Beltran et al. 2025).

The labels stand for the following.
B1: GA-binding protein alpha chain, residues 172 to 250; numbered along this chain, Q06546 (parent)
chain: GYRKEQERLGIPYDPIQWSTDQVLHWVVWVMKEFSMTDIDLTTLNISGRELCSLNQEDFFQRVPRGEILWSHLELLRKY

± gives the uncertainty stated by the source.

The variants in the data set derive from B1. The data set is described as follows: abundance fitness (aPCA) (normalised: wild type 0, dead -1); higher = more abundant; growth selection in yeast, the domain comes from the species named. Particulars: Homo sapiens.
In the case of GYRKEQERLGIPYDPIQWSTDQVLHWVVWVMKFFSMTDIDLTTLNISGRELCSLNQEDFFQRVPRGEILWSHLELLRKY [E33F], the abundance fitness was -0.375 ± 0.071.
The figure for GYRKEQERLGIPYDPIQWSTDQVLHWVVWVMKIFSMTDIDLTTLNISGRELCSLNQEDFFQRVPRGEILWSHLELLRKY [E33I] is -0.767 ± 0.29; for GYRKEQERLGIPYDPIQWSTDQVLHWVVWVMKDFSMTDIDLTTLNISGRELCSLNQEDFFQRVPRGEILWSHLELLRKY [E33D] it is 0.021 ± 0.077; for GYRKEQERLGIPYDPIQWSTDQVLHWVVWVMKKFSMTDIDLTTLNISGRELCSLNQEDFFQRVPRGEILWSHLELLRKY [E33K] it is -0.008 ± 0.065.
The result for GYRKEQERLGIPYDPIQWSTDQVLHWVVWVMKRFSMTDIDLTTLNISGRELCSLNQEDFFQRVPRGEILWSHLELLRKY [E33R] reads -0.031 ± 0.036; that for GYRKEQERLGIPYDPIQWSTDQVLHWVVWVMKYFSMTDIDLTTLNISGRELCSLNQEDFFQRVPRGEILWSHLELLRKY [E33Y], -0.257 ± 0.078; that for GYRKEQERLGIPYDPIQWSTDQVLHWVVWVMKSFSMTDIDLTTLNISGRELCSLNQEDFFQRVPRGEILWSHLELLRKY [E33S], -0.1 ± 0.037.
As to GYRKEQERLGIPYDPIQWSTDQVLHWVVWVMKQFSMTDIDLTTLNISGRELCSLNQEDFFQRVPRGEILWSHLELLRKY [E33Q], the abundance fitness is -0.123 ± 0.066.
Turning to GYRKEQERLGIPYDPIQWSTDQVLHWVVWVMKTFSMTDIDLTTLNISGRELCSLNQEDFFQRVPRGEILWSHLELLRKY [E33T], the abundance fitness is -0.084 ± 0.056.
In the case of GYRKEQERLGIPYDPIQWSTDQVLHWVVWVMKHFSMTDIDLTTLNISGRELCSLNQEDFFQRVPRGEILWSHLELLRKY [E33H], the abundance fitness is -0.092 ± 0.074.
The figure for GYRKEQERLGIPYDPIQWSTDQVLHWVVWVMKAFSMTDIDLTTLNISGRELCSLNQEDFFQRVPRGEILWSHLELLRKY [E33A] is -0.139 ± 0.05; for GYRKEQERLGIPYDPIQWSTDQVLHWVVWVMKWFSMTDIDLTTLNISGRELCSLNQEDFFQRVPRGEILWSHLELLRKY [E33W] it is -0.566 ± 0.089; for GYRKEQERLGIPYDPIQWSTDQVLHWVVWVMKCFSMTDIDLTTLNISGRELCSLNQEDFFQRVPRGEILWSHLELLRKY [E33C] it is -0.276 ± 0.063.
Regarding GYRKEQERLGIPYDPIQWSTDQVLHWVVWVMKNFSMTDIDLTTLNISGRELCSLNQEDFFQRVPRGEILWSHLELLRKY [E33N], the abundance fitness was -0.202 ± 0.25.
For GYRKEQERLGIPYDPIQWSTDQVLHWVVWVMKGFSMTDIDLTTLNISGRELCSLNQEDFFQRVPRGEILWSHLELLRKY [E33G], the abundance fitness is -0.196 ± 0.032.
The figure for GYRKEQERLGIPYDPIQWSTDQVLHWVVWVMKVFSMTDIDLTTLNISGRELCSLNQEDFFQRVPRGEILWSHLELLRKY [E33V] is -0.277 ± 0.036; for GYRKEQERLGIPYDPIQWSTDQVLHWVVWVMKMFSMTDIDLTTLNISGRELCSLNQEDFFQRVPRGEILWSHLELLRKY [E33M] it is -0.337 ± 0.069; for GYRKEQERLGIPYDPIQWSTDQVLHWVVWVMKPFSMTDIDLTTLNISGRELCSLNQEDFFQRVPRGEILWSHLELLRKY [E33P] it is -0.26 ± 0.051.
The result for GYRKEQERLGIPYDPIQWSTDQVLHWVVWVAKEFSMTDIDLTTLNISGRELCSLNQEDFFQRVPRGEILWSHLELLRKY [M31A] reads -0.046 ± 0.051.
GYRKEQERLGIPYDPIQWSTDQVLHWVVWVFKEFSMTDIDLTTLNISGRELCSLNQEDFFQRVPRGEILWSHLELLRKY [M31F]: the abundance fitness was -0.09 ± 0.087.
The result for GYRKEQERLGIPYDPIQWSTDQVLHWVVWVEKEFSMTDIDLTTLNISGRELCSLNQEDFFQRVPRGEILWSHLELLRKY [M31E] reads -0.289 ± 0.084; that for GYRKEQERLGIPYDPIQWSTDQVLHWVVWVTKEFSMTDIDLTTLNISGRELCSLNQEDFFQRVPRGEILWSHLELLRKY [M31T], 0.018 ± 0.059.
The result for GYRKEQERLGIPYDPIQWSTDQVLHWVVWVGKEFSMTDIDLTTLNISGRELCSLNQEDFFQRVPRGEILWSHLELLRKY [M31G] reads -0.089 ± 0.037; that for GYRKEQERLGIPYDPIQWSTDQVLHWVVWVIKEFSMTDIDLTTLNISGRELCSLNQEDFFQRVPRGEILWSHLELLRKY [M31I], -0.031 ± 0.076.
The figure for GYRKEQERLGIPYDPIQWSTDQVLHWVVWVLKEFSMTDIDLTTLNISGRELCSLNQEDFFQRVPRGEILWSHLELLRKY [M31L] is -0.11 ± 0.037; for GYRKEQERLGIPYDPIQWSTDQVLHWVVWVPKEFSMTDIDLTTLNISGRELCSLNQEDFFQRVPRGEILWSHLELLRKY [M31P] it is -1.01 ± 0.16; for GYRKEQERLGIPYDPIQWSTDQVLHWVVWVKKEFSMTDIDLTTLNISGRELCSLNQEDFFQRVPRGEILWSHLELLRKY [M31K] it is -0.089 ± 0.079.
Consider GYRKEQERLGIPYDPIQWSTDQVLHWVVWVDKEFSMTDIDLTTLNISGRELCSLNQEDFFQRVPRGEILWSHLELLRKY [M31D], for which the abundance fitness was -0.794 ± 0.33.
The result for GYRKEQERLGIPYDPIQWSTDQVLHWVVWVYKEFSMTDIDLTTLNISGRELCSLNQEDFFQRVPRGEILWSHLELLRKY [M31Y] reads -0.322 ± 0.088.
The figure for GYRKEQERLGIPYDPIQWSTDQVLHWVVWVNKEFSMTDIDLTTLNISGRELCSLNQEDFFQRVPRGEILWSHLELLRKY [M31N] is -0.191 ± 0.099.
For the variant GYRKEQERLGIPYDPIQWSTDQVLHWVVWVRKEFSMTDIDLTTLNISGRELCSLNQEDFFQRVPRGEILWSHLELLRKY [M31R], the abundance fitness was -0.155 ± 0.036.
Take GYRKEQERLGIPYDPIQWSTDQVLHWVVWVVKEFSMTDIDLTTLNISGRELCSLNQEDFFQRVPRGEILWSHLELLRKY [M31V]: the abundance fitness was -0.036 ± 0.033.
The result for GYRKEQERLGIPYDPIQWSTDQVLHWVVWVQKEFSMTDIDLTTLNISGRELCSLNQEDFFQRVPRGEILWSHLELLRKY [M31Q] reads 0.059 ± 0.049; that for GYRKEQERLGIPYDPIQWSTDQVLHWVVWVHKEFSMTDIDLTTLNISGRELCSLNQEDFFQRVPRGEILWSHLELLRKY [M31H], -0.169 ± 0.23; that for GYRKEQERLGIPYDPIQWSTDQVLHWVVWVCKEFSMTDIDLTTLNISGRELCSLNQEDFFQRVPRGEILWSHLELLRKY [M31C], 0.069 ± 0.078.
